This passage reports self-cleavage results from the RNAGym collection of RNA variant scans (doi:10.7554/elife.80360).

B1: HDV Ribozyme (parent)
chain: GGCCGGCAUGGUCCCAGCCUCCUCGCUGGCGCCGGCUGGGCAACAUUCCGAGGGGACCGUCCCCUCGGUAAUGGCGAAUGGGACCCA

In the data set the parent is B1. In words: self-cleavage, relative activity (ratio to wild type); higher = more cleavage; co-transcriptional.
On to C3G A83G, for which the self-cleavage stood at 0.289. For C3A U60A the value was 0.611; for C3G G10U, 0.193. C3A C21G: the self-cleavage was determined as 0.0115. For C4A U37A the value was 0.0332; for G2U G68C, 0.0339; for C4A C66G, 0.289.

With C3G U12C, the self-cleavage stood at 0. The result for G2U C58A reads 0.0494. The result for G2U C58G reads 0; that for G2U C18A, 0; that for G2U C32G, 0. For C3U A42U the value was 0.339; for C3U A42G, 0.483. For C4A G31A, the self-cleavage worked out at 0.0415.

For the variant C4G C21G, the self-cleavage came out at 0. The result for C3A C13G reads 0.0396; that for C3A C13U, 0.213; that for C3U U20C, 0.113.

For C4G C36U, the self-cleavage was found to be 0.0504. For C4G C36G the value was 0.0268; for C4A G74A, 0. The result for G2U G74U reads 0.056; that for G2U G74A, 0.0163.

Turning to C3U G11U, the self-cleavage was 0.138. Regarding C4G A43U, the self-cleavage turned out to be 0.0415. For C4G C19A the value was 0; for C3U G35C, 0.49. With C3G C4U, the self-cleavage is 0.0171. The result for C3G C26U reads 1.2. Turning to C3G C26A, the self-cleavage worked out at 0.669. For C4A C86A, the self-cleavage was found to be 0.185. For C3G A43G the value was 0.125; for C3U C61G, 0.816. The result for C3A G38A reads 0.124. Take C3A G38U: the self-cleavage came to 0.0471. With C3G G6A, the self-cleavage stood at 0.0923. Turning to C4G C41G, the self-cleavage amounted to 0.0437. For C3A C66G the value was 0.508; for C3A C66U, 0.549; for C3U U47C, 0.564. For C3U U47A the value was 0.969; for C3G A51C, 0.779. Consider C3G A51U, for which the self-cleavage amounted to 0.768.

C3A G74C: the self-cleavage worked out at 0.0369. For C4A G39U the value was 0.14; for C4A G67A, 0.149. The result for C4A G67C reads 0.348. The result for C3U G31U reads 0.173; that for C3U C86A, 0.923. Turning to C3U C86U, the self-cleavage stood at 0.718. For C3U G29C the value was 0.0601; for G2U C66A, 0.0525; for C3A A87G, 0.378.

Turning to C3A A87C, the self-cleavage came to 0.515. Consider G2U G11C, for which the self-cleavage stood at 0.0314.

For G2U G11A, the self-cleavage came to 0.0304.

As to G2U G11U, the self-cleavage was 0.0529. C3A A78G: the self-cleavage came to 0.119. In the case of C3A A78C, the self-cleavage stood at 0.0785.

Take C3A C85U: the self-cleavage stood at 0.626. For G2U C61U, the self-cleavage came to 0.103.

Turning to C3A C4A, the self-cleavage came out at 0.0542.

On to C3A C4U, for which the self-cleavage amounted to 0.0341. C4A G29C: the self-cleavage was 0.0369. The result for C3U G17U reads 0.193; that for C3U G17C, 0.0297. As for C3G C15A, the self-cleavage is 0.293. The result for C3G C15G reads 0.266; that for C4G A87U, 0.225; that for C3A G54U, 0.453. The result for C3U G40C reads 0.26. The result for C3G U79A reads 0.491; that for C3U C63G, 0.572. With C3G C75U, the self-cleavage worked out at 0.0863.

Take C3A A71C: the self-cleavage came out at 0.105. With G2U U72G, the self-cleavage came out at 0.

On to C3G G17C, for which the self-cleavage was determined as 0.0941. For C3G A8G the value was 0.767. The result for C3G A8U reads 0.376; that for G2U G39C, 0.0125. The result for C4A C57G reads 0.277; that for C4G C7U, 0.0234. Turning to C4A C41A, the self-cleavage is 0.117. The result for C4G C62A reads 0.446. As for C4G C62U, the self-cleavage was determined as 0.388. The result for C4A U27C reads 0; that for C4A U27A, 0.189.

As to C3U G25C, the self-cleavage came to 0.113. The result for G2U G59C reads 0.0323; that for C3G G53U, 0.549; that for C3G G53A, 0.742. For C3A A70G the value was 0.686; for C4A A8G, 0.192; for C3U G53A, 1.

On to C3G U20G, for which the self-cleavage was 0.

Regarding C3G U20A, the self-cleavage is 0.0755. Consider C3U U79A, for which the self-cleavage came out at 0.591. On to G2U G5A, for which the self-cleavage amounted to 0.0171.

Turning to G2U G5U, the self-cleavage turned out to be 0.0163. For C3G A87G the value was 0.708. The result for C4A C75A reads 0.157. For C4A C75U the value was 0.102; for C3G G50C, 0.475; for C3G C49G, 0.523. Take C3U C15G: the self-cleavage was 0.6. The result for C3U C26A reads 0.923; that for C4A G25U, 0.0252. The result for C3G C44U reads 0.156; that for C3U C24A, 0.328; that for C3U C18G, 0.0779.

Regarding C3G G52C, the self-cleavage came to 0.658. C3G G52U: the self-cleavage was 0.691. Turning to G2U U27G, the self-cleavage was 0.0791. The result for C4A G81A reads 0.0468. The result for C3U G39U reads 0.385.

Regarding C3G G11A, the self-cleavage came to 0.144. For C3G G11C the value was 0.225; for C3A C7A, 0.044; for C3A C7G, 0.0223. Consider C4G G5C, for which the self-cleavage is 0.0594. As to C3A C33A, the self-cleavage stood at 0.0698.

Regarding C4A A71G, the self-cleavage was found to be 0.151. The result for C4A A71U reads 0.259. The result for C4A U20A reads 0.0386; that for C4A U20G, 0. The result for C4A G34U reads 0.831; that for C3G G29U, 0.0656. In the case of C3U A71G, the self-cleavage is 0.89. The result for C3A A56U reads 0.71.

C4A C48U: the self-cleavage was found to be 0.151. For C4A C48A the value was 0.225; for C4A G80U, 0.048. For C4A G80C the value was 0. The result for C4A G80A reads 0.0519; that for C4G A56C, 0.32. Consider C4G A56U, for which the self-cleavage amounted to 0.462. On to G2U C26G, for which the self-cleavage was found to be 0.0627. The result for C3A G76A reads 0.783.

Take C3A C22G: the self-cleavage amounted to 0.0631. For G2U G73U the value was 0.0361.

Take C4G C66G: the self-cleavage was found to be 0.727. The result for C4G A42C reads 0; that for C4G A8C, 0.0898. The result for C4A A77U reads 0. Consider C4A A77G, for which the self-cleavage turned out to be 0.0369.

For the variant C3A G55C, the self-cleavage was found to be 0.642. For C3A G55U the value was 0.563; for C3U C66A, 0.69. For C3U C66G, the self-cleavage amounted to 0.758. In the case of C3U C13U, the self-cleavage was 0.509. The result for C3U C13G reads 0.179; that for C3G A70C, 0.508; that for C3U C14G, 0.739. The result for C3U C14U reads 0.758; that for G2U G25U, 0.0449; that for C4G C57U, 0.529. The result for G2U G82U reads 0.0171. As to C3U C30G, the self-cleavage stood at 0. For C3U C30A the value was 0.223. The result for C3U C30U reads 0.345; that for C3U G82A, 0.283; that for C4A C58A, 0.348. For C3G C86U the value was 0.885.

As for C4G A83C, the self-cleavage amounted to 0.102. For C3U G76C the value was 0.708; for C3A G52A, 0.699.
